Assay: in vivo
Settings: C57BL/6, mouse, total radioactivity; for tissue to tissue ratio at 1 h / tissue to tissue ratio at 4 h / tissue to tissue ratio at 12 h / tissue to tissue ratio at 24 h / tissue to tissue ratio at 72 h: Tumor-to-tissue ratio
Procedure: Mice bearing MC38 xenografts were randomly divided into 10 groups (n = 4). The mice in five groups were administered 0.74 MBq/20 µCi of ^177Lu-Palm-3PRGD2 and sacrificed at 1, 4, 12, 24, and 72 h p.i. The mice on one group was injected with 0.74 MBq/20 µCi of ^177Lu-Palm-3PRGD2 and 500 μg (242 nmol) 3PRGD2 as a blocking agent and sacrificed at 1 h p.i. […] Tumors and major organs were harvested, weighed and measured for radioactivity using a γ-counter. The organ uptake was calculated as the percentage injected activity per gram (%IA/g). The effective absorbed dose in humans estimated from mouse biodistribution data by using a dedicated software (OLINDA 1.0).

SMILES: CCCCCCCCCCCCCCCC(=O)N[C@@H](CCC(=O)NCCCC[C@H](NC(=O)CN1CCN(CC(=O)O)CCN(CC(=O)O)CCN(CC(=O)O)CC1)C(=O)NCCOCCOCCOCCOCCC(=O)N[C@@H](CCC(=O)NCCOCCOCCOCCOCCC(=O)NCCCC[C@@H]1NC(=O)[C@@H](Cc2ccccc2)NC(=O)[C@H](CC(=O)O)NC(=O)CNC(=O)[C@H](CCCNC(=N)N)NC1=O)C(=O)NCCOCCOCCOCCOCCC(=O)NCCCC[C@@H]1NC(=O)[C@@H](Cc2ccccc2)NC(=O)[C@H](CC(=O)O)NC(=O)CNC(=O)[C@H](CCCNC(=N)N)NC1=O)C(=O)O [^177Lu-Palm-3PRGD2, [^177Lu]Lu-DOTA-Palm-3PRGD2, metal not drawn]
- tissue uptake at 1 h (0.74 MBq, Blood uptake): 9.73 %ID/g
- tissue uptake at 4 h (0.74 MBq, Blood uptake): 4.11 %ID/g
- tissue uptake at 12 h (0.74 MBq, Blood uptake): 0.58 %ID/g
- tissue uptake at 24 h (0.74 MBq, Blood uptake): 0.24 %ID/g
- tissue uptake at 72 h (0.74 MBq, Blood uptake): 0.21 %ID/g
- tissue uptake at 1 h (0.74 MBq, Bone uptake): 3.39 %ID/g
- tissue uptake at 4 h (0.74 MBq, Bone uptake): 4.55 %ID/g
- tissue uptake at 12 h (0.74 MBq, Bone uptake): 3.05 %ID/g
- tissue uptake at 24 h (0.74 MBq, Bone uptake): 3.13 %ID/g
- tissue uptake at 72 h (0.74 MBq, Bone uptake): 1.97 %ID/g
- tissue uptake at 1 h (0.74 MBq, Brain uptake): 0.52 %ID/g
- tissue uptake at 4 h (0.74 MBq, Brain uptake): 0.55 %ID/g
- tissue uptake at 12 h (0.74 MBq, Brain uptake): 0.43 %ID/g
- tissue uptake at 24 h (0.74 MBq, Brain uptake): 0.4 %ID/g
- tissue uptake at 72 h (0.74 MBq, Brain uptake): 0.29 %ID/g
- tissue uptake at 1 h (0.74 MBq, Heart uptake): 5.59 %ID/g
- tissue uptake at 4 h (0.74 MBq, Heart uptake): 4.93 %ID/g
- tissue uptake at 12 h (0.74 MBq, Heart uptake): 3.2 %ID/g
- tissue uptake at 24 h (0.74 MBq, Heart uptake): 2.7 %ID/g
- tissue uptake at 72 h (0.74 MBq, Heart uptake): 1.53 %ID/g
- tissue uptake at 1 h (0.74 MBq, Intestinal uptake): 20.6 ± 1.97 %ID/g
- tissue uptake at 72 h (0.74 MBq, Intestinal uptake): 12.8 ± 1.06 %ID/g
- tissue uptake at 4 h (0.74 MBq, Intestine uptake): 17.6 %ID/g
- tissue uptake at 12 h (0.74 MBq, Intestine uptake): 21.1 %ID/g
- tissue uptake at 24 h (0.74 MBq, Intestine uptake): 17.4 %ID/g
- tissue uptake at 1 h (0.74 MBq, Kidney uptake): 17.6 %ID/g
- tissue uptake at 4 h (0.74 MBq, Kidney uptake): 20.1 ± 0.6 %ID/g
- tissue uptake at 12 h (0.74 MBq, Kidney uptake): 19.3 %ID/g
- tissue uptake at 24 h (0.74 MBq, Kidney uptake): 17 %ID/g
- tissue uptake at 72 h (0.74 MBq, Kidney uptake): 10.6 ± 1.11 %ID/g
- tissue uptake at 1 h (0.74 MBq, Liver uptake): 13.7 %ID/g
- tissue uptake at 4 h (0.74 MBq, Liver uptake): 22.4 ± 2.55 %ID/g
- tissue uptake at 12 h (0.74 MBq, Liver uptake): 22.1 %ID/g
- tissue uptake at 24 h (0.74 MBq, Liver uptake): 13.7 %ID/g
- tissue uptake at 72 h (0.74 MBq, Liver uptake): 6.73 ± 1.18 %ID/g
- tissue uptake at 1 h (0.74 MBq, Lung uptake): 7.79 %ID/g
- tissue uptake at 4 h (0.74 MBq, Lung uptake): 7.85 %ID/g
- tissue uptake at 12 h (0.74 MBq, Lung uptake): 5.2 %ID/g
- tissue uptake at 24 h (0.74 MBq, Lung uptake): 3.53 %ID/g
- tissue uptake at 72 h (0.74 MBq, Lung uptake): 1.55 %ID/g
- tissue uptake at 1 h (0.74 MBq, Muscle uptake): 1.96 %ID/g
- tissue uptake at 4 h (0.74 MBq, Muscle uptake): 1.7 %ID/g
- tissue uptake at 12 h (0.74 MBq, Muscle uptake): 1.24 %ID/g
- tissue uptake at 24 h (0.74 MBq, Muscle uptake): 0.96 %ID/g
- tissue uptake at 72 h (0.74 MBq, Muscle uptake): 0.7 %ID/g
- tissue uptake at 1 h (0.74 MBq, Spleen uptake): 7.35 %ID/g
- tissue uptake at 4 h (0.74 MBq, Spleen uptake): 12.4 %ID/g
- tissue uptake at 12 h (0.74 MBq, Spleen uptake): 18.4 %ID/g
- tissue uptake at 24 h (0.74 MBq, Spleen uptake): 14.9 %ID/g
- tissue uptake at 72 h (0.74 MBq, Spleen uptake): 8.38 %ID/g
- tissue uptake at 1 h (0.74 MBq, Stomach uptake): 5.73 %ID/g
- tissue uptake at 4 h (0.74 MBq, Stomach uptake): 7.22 %ID/g
- tissue uptake at 12 h (0.74 MBq, Stomach uptake): 6.07 %ID/g
- tissue uptake at 24 h (0.74 MBq, Stomach uptake): 3.7 %ID/g
- tissue uptake at 72 h (0.74 MBq, Stomach uptake): 1.38 %ID/g
- tissue uptake at 1 h (0.74 MBq, Tumor uptake): 14.4 ± 2.53 %ID/g
- tissue uptake at 4 h (0.74 MBq, Tumor uptake): 26.3 ± 6.34 %ID/g
- tissue uptake at 12 h (0.74 MBq, Tumor uptake): 22.9 ± 4.2 %ID/g
- tissue uptake at 24 h (0.74 MBq, Tumor uptake): 17.2 ± 3.3 %ID/g
- tissue uptake at 72 h (0.74 MBq, Tumor uptake): 5.83 ± 1.27 %ID/g
- tissue to tissue ratio at 1 h (0.74 MBq, Blood): 1.47
- tissue to tissue ratio at 4 h (0.74 MBq, Blood): 7.28
- tissue to tissue ratio at 12 h (0.74 MBq, Blood): 44.9
- tissue to tissue ratio at 24 h (0.74 MBq, Blood): 73.2
- tissue to tissue ratio at 72 h (0.74 MBq, Blood): 28.2
- tissue to tissue ratio at 1 h (0.74 MBq, Bone): 4.3
- tissue to tissue ratio at 4 h (0.74 MBq, Bone): 6.66
- tissue to tissue ratio at 12 h (0.74 MBq, Bone): 7.14
- tissue to tissue ratio at 24 h (0.74 MBq, Bone): 5.61
- tissue to tissue ratio at 72 h (0.74 MBq, Bone): 2.96
- tissue to tissue ratio at 1 h (0.74 MBq, Brain): 27.9
- tissue to tissue ratio at 4 h (0.74 MBq, Brain): 55.3
- tissue to tissue ratio at 12 h (0.74 MBq, Brain): 52.5
- tissue to tissue ratio at 24 h (0.74 MBq, Brain): 42.5
- tissue to tissue ratio at 72 h (0.74 MBq, Brain): 19.9
- tissue to tissue ratio at 1 h (0.74 MBq, Heart): 2.59
- tissue to tissue ratio at 4 h (0.74 MBq, Heart): 6.12
- tissue to tissue ratio at 12 h (0.74 MBq, Heart): 7.11
- tissue to tissue ratio at 24 h (0.74 MBq, Heart): 6.41
- tissue to tissue ratio at 72 h (0.74 MBq, Heart): 3.86
- tissue to tissue ratio at 1 h (0.74 MBq, Intestine): 0.77
- tissue to tissue ratio at 4 h (0.74 MBq, Intestine): 1.62
- tissue to tissue ratio at 12 h (0.74 MBq, Intestine): 1.06
- tissue to tissue ratio at 24 h (0.74 MBq, Intestine): 1
- tissue to tissue ratio at 72 h (0.74 MBq, Intestine): 0.45
- tissue to tissue ratio at 1 h (0.74 MBq, Kidney): 0.82
- tissue to tissue ratio at 4 h (0.74 MBq, Kidney): 1.42
- tissue to tissue ratio at 12 h (0.74 MBq, Kidney): 1.2
- tissue to tissue ratio at 24 h (0.74 MBq, Kidney): 1.01
- tissue to tissue ratio at 72 h (0.74 MBq, Kidney): 0.56
- tissue to tissue ratio at 1 h (0.74 MBq, Liver): 1.06
- tissue to tissue ratio at 4 h (0.74 MBq, Liver): 1.02
- tissue to tissue ratio at 12 h (0.74 MBq, Liver): 1.05
- tissue to tissue ratio at 24 h (0.74 MBq, Liver): 1.3
- tissue to tissue ratio at 72 h (0.74 MBq, Liver): 0.89
- tissue to tissue ratio at 1 h (0.74 MBq, Lung): 1.87
- tissue to tissue ratio at 4 h (0.74 MBq, Lung): 3.98
- tissue to tissue ratio at 12 h (0.74 MBq, Lung): 3.86
- tissue to tissue ratio at 24 h (0.74 MBq, Lung): 4.89
- tissue to tissue ratio at 72 h (0.74 MBq, Lung): 3.78
- tissue to tissue ratio at 1 h (0.74 MBq, Muscle): 7.33
- tissue to tissue ratio at 4 h (0.74 MBq, Muscle): 17.5
- tissue to tissue ratio at 12 h (0.74 MBq, Muscle): 18
- tissue to tissue ratio at 24 h (0.74 MBq, Muscle): 17.9
- tissue to tissue ratio at 72 h (0.74 MBq, Muscle): 8.33
- tissue to tissue ratio at 1 h (0.74 MBq, Spleen): 2.02
- tissue to tissue ratio at 4 h (0.74 MBq, Spleen): 2.56
- tissue to tissue ratio at 12 h (0.74 MBq, Spleen): 1.4
- tissue to tissue ratio at 24 h (0.74 MBq, Spleen): 1.35
- tissue to tissue ratio at 72 h (0.74 MBq, Spleen): 0.7
- tissue to tissue ratio at 1 h (0.74 MBq, Stomach): 2.57
- tissue to tissue ratio at 4 h (0.74 MBq, Stomach): 4.06
- tissue to tissue ratio at 12 h (0.74 MBq, Stomach): 3.84
- tissue to tissue ratio at 24 h (0.74 MBq, Stomach): 4.74
- tissue to tissue ratio at 72 h (0.74 MBq, Stomach): 4.25
- tissue to tissue ratio at 1 h (Blood): 0.25
- tissue to tissue ratio at 1 h (Bone): 2.51
- tissue to tissue ratio at 1 h (Brain): 14.8
- tissue to tissue ratio at 1 h (Heart): 1.32
- tissue to tissue ratio at 1 h (Intestine): 0.96
- tissue to tissue ratio at 1 h (Kidney): 0.69
- tissue to tissue ratio at 1 h (Liver): 1.19
- tissue to tissue ratio at 1 h (Lung): 0.71
- tissue to tissue ratio at 1 h (Muscle): 3.53
- tissue to tissue ratio at 1 h (Spleen): 1.61
- tissue to tissue ratio at 1 h (Stomach): 1.64

Reference: publication PMC9321335, “Palmitic Acid-Conjugated Radiopharmaceutical for Integrin αvβ3-Targeted Radionuclide Therapy” (Pharmaceutics, 2022)
